For one data set, the target named is T1, CEACAM7 (Homo sapiens, UniProt Q14002).
T1 sequence (Q14002 36-242): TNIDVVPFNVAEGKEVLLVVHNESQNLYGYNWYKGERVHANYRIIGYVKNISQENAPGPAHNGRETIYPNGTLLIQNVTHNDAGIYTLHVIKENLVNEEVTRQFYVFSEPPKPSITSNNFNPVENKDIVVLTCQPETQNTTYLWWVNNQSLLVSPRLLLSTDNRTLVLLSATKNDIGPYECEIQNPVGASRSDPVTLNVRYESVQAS
The data set is described as follows: recognition of other CEACAMs. Type of data set: binding.

The target of the next data set is T2, CEACAM8 (Homo sapiens, UniProt P31997).
T2 sequence (P31997 35-320): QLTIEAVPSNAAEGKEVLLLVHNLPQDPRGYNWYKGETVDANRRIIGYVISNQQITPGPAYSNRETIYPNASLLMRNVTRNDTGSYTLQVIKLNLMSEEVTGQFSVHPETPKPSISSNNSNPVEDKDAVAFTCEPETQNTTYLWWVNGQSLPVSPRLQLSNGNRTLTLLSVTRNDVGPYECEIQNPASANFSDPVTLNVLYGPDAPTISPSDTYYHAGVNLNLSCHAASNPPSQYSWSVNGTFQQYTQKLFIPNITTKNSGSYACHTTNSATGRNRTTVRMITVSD
The data set is described as follows: recognition of other CEACAMs. It is filed as binding.

The next data set concerns cells expressing CEACAM5. Conditions: see WO 2014/079886; cited from earlier work.
For data set [1], the target named is T3, A3B3 domain of human CEACAM5 (Homo sapiens, UniProt P06731).
T3 sequence (P06731 499-685 limits assumed): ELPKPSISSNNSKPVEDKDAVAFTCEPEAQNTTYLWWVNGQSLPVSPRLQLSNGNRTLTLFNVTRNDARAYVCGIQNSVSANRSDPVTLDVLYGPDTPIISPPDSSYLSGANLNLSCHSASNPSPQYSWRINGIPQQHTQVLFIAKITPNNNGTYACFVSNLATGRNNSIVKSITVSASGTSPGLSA
The data set can be described thus: domain specificity of binding.

The test system of data set [2] is relevant experimental model. The data set can be described thus: single administration in relevant experimental model. Type of data set: in vivo.
Data set [3] concerns human primary colon and stomach tumors. Conditions: mice bearing human primary colon and stomach tumors; see WO 2014/079886; cited from earlier work.
A short description of data set [4]: Phase 1/2 study adverse drug reactions. As to conditions: heavily pre-treated high CEACAM5 expressers for NSCLC. It is filed as in vivo, human. The protocol:
The ADC was analyzed in a Phase 1/2 study in heavily pre-treated high CEACAM5 expressers for NSCLC.

For another data set, the target named is T4, CEACAM1 (Homo sapiens, UniProt P13688).
T4 sequence (P13688 35-526): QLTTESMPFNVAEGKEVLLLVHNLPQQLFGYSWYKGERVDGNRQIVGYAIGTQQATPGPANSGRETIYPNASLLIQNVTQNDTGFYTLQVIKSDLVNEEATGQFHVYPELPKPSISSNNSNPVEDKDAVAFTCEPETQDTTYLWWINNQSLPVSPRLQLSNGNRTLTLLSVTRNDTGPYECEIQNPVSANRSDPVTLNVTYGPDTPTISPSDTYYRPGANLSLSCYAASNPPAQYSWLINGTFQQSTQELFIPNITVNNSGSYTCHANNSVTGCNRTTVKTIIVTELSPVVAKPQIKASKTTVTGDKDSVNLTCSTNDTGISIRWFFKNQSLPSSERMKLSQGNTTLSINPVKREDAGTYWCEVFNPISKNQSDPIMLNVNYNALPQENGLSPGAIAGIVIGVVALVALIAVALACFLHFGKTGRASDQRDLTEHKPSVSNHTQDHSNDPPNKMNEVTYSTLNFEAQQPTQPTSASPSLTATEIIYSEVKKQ
The data set is described as follows: recognition of other CEACAMs. Type of data set: binding.

Data set [5] has as its system patient-derived CRC xenograft expressing CEACAM5. The data set can be described thus: circulating CEA in mice engrafted orthotopically with patient-derived CRC xenograft. Type of data set: in vivo. As to conditions: single active dose; rise in circulating CEA occurring with tumor growth. An excerpt:
However, specificities linked to the CEACAM5 target would potentially allow a more accurate follow-up of treatment impact on tumor growth by the monitoring CEA levels in the blood. Indeed, measurement of circulating CEA levels is of some use for CRC treatment monitoring. […] Similarly, modulation of circulating CEA may be a useful PDy marker of response to tusamitamab ravtansine. […] The usefulness of monitoring circulating CEA will be explored in this clinical study.
In general terms: Xenograft models place foreign cells or tissue in a host animal.

Data set [6] in a line: preliminary experiments on effector activity.
The target in the next data set is T5, CEACAM6 (Homo sapiens, UniProt P40199).
T5 sequence (P40199 35-320): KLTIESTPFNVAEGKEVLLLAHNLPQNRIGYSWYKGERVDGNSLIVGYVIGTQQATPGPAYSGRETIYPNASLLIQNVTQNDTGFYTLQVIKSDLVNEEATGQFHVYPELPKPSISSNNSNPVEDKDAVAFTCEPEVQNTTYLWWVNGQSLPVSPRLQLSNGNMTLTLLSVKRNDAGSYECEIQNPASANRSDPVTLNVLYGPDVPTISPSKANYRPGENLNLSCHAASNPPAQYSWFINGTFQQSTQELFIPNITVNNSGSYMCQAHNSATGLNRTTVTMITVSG
The data set can be described thus: recognition of other CEACAMs. It is filed as binding.

As for “Tusamitamab ravtansine: immunoconjugate ADC combining humanized anti-CEACAM5 antibody tusamitamab and maytansinoid DM4 via SPDB linker; CAS Registry No. 2254086-60-5”, in the data set with CEACAM7, the “recognition of CEACAM7” value is “does not recognize”. In addition, the “recognition of CEACAM8” value with CEACAM8 was “does not recognize”. Moreover, the “internalization into cells expressing CEACAM5 after binding” value with cells expressing CEACAM5 is recorded as “capable of being internalized”. Moreover, the “binding to A3B3 domain of human CEACAM5” value in [1] is “specifically binds”. Besides, the tumor regressions result in data set [2] was “induces regressions”. The “tumor growth inhibition in vivo” value in data set [3] is listed as “markedly inhibit tumor growth”. The hematological/nerve toxicity result in data set [4] is “minimal”. Further, the “most common Adverse Drug Reactions (ADRs)” value in data set [4] (reversible without treatment discontinuation) is given as “ocular toxicity”. Also, the “recognition of CEACAM1” value with CEACAM1 was “does not recognize”. For the same substance, the “circulating CEA” value in data set [5] is “prevented a rise in circulating CEA”. The effector activity entry in [6] is recorded as “devoid of effector activity”. In addition, the “recognition of CEACAM6” value with CEACAM6 was “does not recognize”.

The values above are taken from patent publication US20250041434A1, “CEA ASSAY FOR PATIENT SELECTION IN CANCER THERAPY” (SANOFI, priority 2021, published 2025).
